Measured values reported in the supplement of paper PMC10724198.
± gives the standard deviation of the averaged measurements.
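Also: PSI is a weighted mean of sequencing reads over stability bins, variants kept only with over 10 reads, mCherry proximal and sfGFP distal, peptide attached via GGGS linker.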

These sequences were tested on Saccharomyces cerevisiae (assay: protein stability index of tFT-peptide fusion (C-terminal peptide) (PSI (0-1 scale)); higher = more stable (slower turnover)). Settings: genetic background: cdc53-1; temperature: 37 C.
Description: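 MPS profiling in S. cerevisiae of the tFT-X12 degron library: putative degron peptides plus stable controls, 12 aa, fused to the C-terminus of a sfGFP-mCherry timer. Cells are FACS-sorted into 8 mCherry/sfGFP bins and deep-sequenced. PSI runs from 0 (unstable) to 1 (stable). Backgrounds are wild type, das1Δ and doa10Δ at 30 °C, and wild type, das1Δ, cdc34-1 and cdc53-1 at 37 °C; 2-3 technical replicates each.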
With TLWWRQPFWGFG the protein stability index was 0.802 ± 0.0045. TSRRPFVLVMWL was tested, and the protein stability index was 0.599 ± 0.0078. For TTATLSFAICAV, the protein stability index was 0.455 ± 0.012. For TYKHIVRVNKCE, the protein stability index was 0.684 ± 0.021. For TYSVIPSLALLP, the protein stability index was 0.727 ± 0.013. VAGGFWCWGMVG showed a protein stability index of 0.782 ± 0.015. VARWVYALGLLC showed a protein stability index of 0.6488 ± 0.0027. For VCCSILFSAFLV, the protein stability index was 0.6552 ± 0.0051. VCDPWVFIRCLV gave a protein stability index of 0.57354 ± 0.00022. Work on VCLVAGVFFCLL yielded a protein stability index of 0.587 ± 0.025. VCVAVCFVMCGG showed a protein stability index of 0.457 ± 0.023. VCVWVDILAFCS showed a protein stability index of 0.245 ± 0.097. VDVWRWRGLRVG was tested, and the protein stability index was 0.73743 ± 0.00065. Sequence VFAWSLYLRWAW has a protein stability index of 0.287 ± 0.0065. Work on VFFFNALFCFFC yielded a protein stability index of 0.51 ± 0.0085. For VFFSLSLILFPF, the protein stability index was 0.5265 ± 0.0017. VFFVLAVVGADA gave a protein stability index of 0.461 ± 0.024. Sequence VFLFSLLIVFFP has a protein stability index of 0.3 ± 0.0087. Work on VFLLLSLSVFFE yielded a protein stability index of 0.0844 ± 0.0086. VFSFGLLFQVCR showed a protein stability index of 0.625 ± 0.025. In the case of VFSGVTTILVRT, the protein stability index is reported as 0.517 ± 0.026. In the case of VFSLFLVLNYPF, the protein stability index is reported as 0.296 ± 0.043. With VGGLGWCWVCMA the protein stability index was 0.718 ± 0.035. In the case of VGIFKVCALVLR, the protein stability index is reported as 0.296 ± 0.011. In the case of VGVSCVVCVCGV, the protein stability index is reported as 0.471 ± 0.02. For VGVVVAIGLVRM, the protein stability index was 0.575 ± 0.032. In the case of VICSLFRYIMRL, the protein stability index is reported as 0.518 ± 0.0071. VIFFEFFLSFGE was tested, and the protein stability index was 0.481 ± 0.024. VIRIRLSCSVDV was tested, and the protein stability index was 0.42 ± 0.047. Sequence VISVFAISTRVD has a protein stability index of 0.4901 ± 0.00049. Sequence VIVQSWEIIRLN has a protein stability index of 0.71 ± 0.0093. For VKVKMKIIIIIK, the protein stability index was 0.258 ± 0.16. In the case of VLGFRPLVFLCF, the protein stability index is reported as 0.252 ± 0.029. Sequence VLRACCDWGFLV has a protein stability index of 0.696 ± 0.039. VLRLLARRHAMV gave a protein stability index of 0.6735 ± 0.002. VMLFYVGSGVVS showed a protein stability index of 0.688 ± 0.038. For VPGCLGRFLFFL, the protein stability index was 0.6987 ± 0.0066. Work on VRFGYGRIVWDI yielded a protein stability index of 0.789 ± 0.048. VRGLGFRWVWGW showed a protein stability index of 0.762 ± 0.011. In the case of VRHPVVVVRRVI, the protein stability index is reported as 0.746 ± 0.0067. In the case of VRRFNVLLYVRG, the protein stability index is reported as 0.4921 ± 0.0032. With VRTFAVSCLCVC the protein stability index was 0.139 ± 0.034. VSFFCLICRVYP gave a protein stability index of 0.4463 ± 0.0044. For VSIRVVVWVSWG, the protein stability index was 0.2248 ± 0.00098. With VSLHVFVFLLAS the protein stability index was 0.347 ± 0.0036. Sequence VSLIYKTIKNRV has a protein stability index of 0.732 ± 0.0082. With VSLSEVAIIVHG the protein stability index was 0.611 ± 0.0098. Work on VSWWRGVYVVLF yielded a protein stability index of 0.5319 ± 0.00099. VTEGMKEVIKQI gave a protein stability index of 0.702 ± 0.026. VVDIFLFFLFVC gave a protein stability index of 0.192 ± 0.027. With VVFVFIDLGLCV the protein stability index was 0.326 ± 0.035. With VVFVRLGWMRAC the protein stability index was 0.52 ± 0.017. VVGILVLASWDL gave a protein stability index of 0.321 ± 0.058. For VVLWTFLLEVSA, the protein stability index was 0.0344 ± 0.0033. Work on VVLWVVCWGCWK yielded a protein stability index of 0.339 ± 0.021. With VVSLAVVGRFLV the protein stability index was 0.7 ± 0.011. Sequence VVVFRWTCWLLV has a protein stability index of 0.144 ± 0.023. Sequence VWSCILPMVYVW has a protein stability index of 0.109 ± 0.0066. For VWWWGAVGWLMV, the protein stability index was 0.602 ± 0.028. WCVRRVRFVMGC showed a protein stability index of 0.458 ± 0.05. WFLVFLRVGDGP showed a protein stability index of 0.566 ± 0.0072. Work on WKNIHGVFVFVM yielded a protein stability index of 0.48 ± 0.014. Work on WLCLGLVVGLFL yielded a protein stability index of 0.488 ± 0.013. WLCWVVWFPGLF gave a protein stability index of 0.509 ± 0.028. In the case of WLFFVVLPVKAF, the protein stability index is reported as 0.146 ± 0.02. WLLSFLRFLVLR showed a protein stability index of 0.0923 ± 0.027. WLVCAGWVVLSC showed a protein stability index of 0.2052 ± 0.00049. Sequence WLYPVFKISYCV has a protein stability index of 0.533 ± 0.024. With WNIVKHREDMLS the protein stability index was 0.768 ± 0.015. With WSLPPLLSPLYF the protein stability index was 0.753 ± 0.019. In the case of WVCCFVWGCLIR, the protein stability index is reported as 0.187 ± 0.0078. WVLSRAAFVFFF showed a protein stability index of 0.612 ± 0.0096. For WVVLVCGFVLLG, the protein stability index was 0.369 ± 0.0077. For YAFSTCTILIRF, the protein stability index was 0.154 ± 0.044. YFTNCYRSILTF was tested, and the protein stability index was 0.487 ± 0.013. In the case of YGWILQLPCFVI, the protein stability index is reported as 0.237 ± 0.00093. For YHDKLRAIEKFF, the protein stability index was 0.725 ± 0.0075. In the case of YLCFVVSCGVLR, the protein stability index is reported as 0.475 ± 0.026.

Same assay, conditions: genetic background: das1 deletion; temperature: 30 C
TLWWRQPFWGFG was tested, and the protein stability index was 0.659 ± 0.013. With TSRRPFVLVMWL the protein stability index was 0.405 ± 0.04. Work on TTATLSFAICAV yielded a protein stability index of 0.315 ± 0.022. For TYKHIVRVNKCE, the protein stability index was 0.627 ± 0.033. In the case of TYSVIPSLALLP, the protein stability index is reported as 0.643 ± 0.014. VAGGFWCWGMVG showed a protein stability index of 0.663 ± 0.0093. With VARWVYALGLLC the protein stability index was 0.545 ± 0.028. VCCSILFSAFLV gave a protein stability index of 0.532 ± 0.019. In the case of VCDPWVFIRCLV, the protein stability index is reported as 0.418 ± 0.031. With VCLVAGVFFCLL the protein stability index was 0.44 ± 0.018. In the case of VCVAVCFVMCGG, the protein stability index is reported as 0.324 ± 0.023. VCVWVDILAFCS was tested, and the protein stability index was 0.183 ± 0.026. Work on VDVWRWRGLRVG yielded a protein stability index of 0.61 ± 0.013. Work on VFAWSLYLRWAW yielded a protein stability index of 0.362 ± 0.025. VFFFNALFCFFC was tested, and the protein stability index was 0.535 ± 0.02. Sequence VFFSLSLILFPF has a protein stability index of 0.412 ± 0.022. Sequence VFFVLAVVGADA has a protein stability index of 0.331 ± 0.033. With VFLFSLLIVFFP the protein stability index was 0.226 ± 0.029. Sequence VFLLLSLSVFFE has a protein stability index of 0.138 ± 0.0083. Sequence VFSFGLLFQVCR has a protein stability index of 0.435 ± 0.022. Work on VFSGVTTILVRT yielded a protein stability index of 0.37 ± 0.035. VFSLFLVLNYPF gave a protein stability index of 0.373 ± 0.021. VGGLGWCWVCMA gave a protein stability index of 0.595 ± 0.017. With VGIFKVCALVLR the protein stability index was 0.324 ± 0.027. Work on VGVSCVVCVCGV yielded a protein stability index of 0.289 ± 0.034. For VGVVVAIGLVRM, the protein stability index was 0.381 ± 0.041. VICSLFRYIMRL was tested, and the protein stability index was 0.571 ± 0.013. Sequence VIFFEFFLSFGE has a protein stability index of 0.281 ± 0.026. VIRIRLSCSVDV was tested, and the protein stability index was 0.323 ± 0.022. VISVFAISTRVD gave a protein stability index of 0.409 ± 0.057. Sequence VIVQSWEIIRLN has a protein stability index of 0.604 ± 0.022. VKVKMKIIIIIK showed a protein stability index of 0.28 ± 0.044. VLGFRPLVFLCF was tested, and the protein stability index was 0.324 ± 0.029. VLRACCDWGFLV showed a protein stability index of 0.655 ± 0.017. VLRLLARRHAMV was tested, and the protein stability index was 0.614 ± 0.015. VMLFYVGSGVVS showed a protein stability index of 0.54 ± 0.032. VPGCLGRFLFFL showed a protein stability index of 0.573 ± 0.024. VRFGYGRIVWDI showed a protein stability index of 0.6514 ± 0.0055. With VRGLGFRWVWGW the protein stability index was 0.664 ± 0.0089. VRHPVVVVRRVI gave a protein stability index of 0.649 ± 0.035. Work on VRRFNVLLYVRG yielded a protein stability index of 0.311 ± 0.027. VRTFAVSCLCVC showed a protein stability index of 0.19 ± 0.019. In the case of VSFFCLICRVYP, the protein stability index is reported as 0.317 ± 0.033. For VSIRVVVWVSWG, the protein stability index was 0.145 ± 0.022. With VSLHVFVFLLAS the protein stability index was 0.249 ± 0.025. For VSLIYKTIKNRV, the protein stability index was 0.595 ± 0.03. Work on VSLSEVAIIVHG yielded a protein stability index of 0.418 ± 0.035. With VSWWRGVYVVLF the protein stability index was 0.388 ± 0.031. VTEGMKEVIKQI gave a protein stability index of 0.629 ± 0.044. VVDIFLFFLFVC showed a protein stability index of 0.243 ± 0.013. With VVFVFIDLGLCV the protein stability index was 0.243 ± 0.028. For VVFVRLGWMRAC, the protein stability index was 0.43 ± 0.03. VVGILVLASWDL gave a protein stability index of 0.264 ± 0.041. For VVLWTFLLEVSA, the protein stability index was 0.0674 ± 0.015. In the case of VVLWVVCWGCWK, the protein stability index is reported as 0.215 ± 0.038. Sequence VVSLAVVGRFLV has a protein stability index of 0.586 ± 0.024. For VVVFRWTCWLLV, the protein stability index was 0.0835 ± 0.013. VWSCILPMVYVW was tested, and the protein stability index was 0.156 ± 0.022. In the case of VWWWGAVGWLMV, the protein stability index is reported as 0.528 ± 0.026. WCVRRVRFVMGC showed a protein stability index of 0.316 ± 0.024. Work on WFLVFLRVGDGP yielded a protein stability index of 0.362 ± 0.027. With WKNIHGVFVFVM the protein stability index was 0.389 ± 0.028. In the case of WLCLGLVVGLFL, the protein stability index is reported as 0.383 ± 0.029. In the case of WLCWVVWFPGLF, the protein stability index is reported as 0.369 ± 0.032. WLFFVVLPVKAF gave a protein stability index of 0.178 ± 0.038. In the case of WLLSFLRFLVLR, the protein stability index is reported as 0.322 ± 0.045. WLVCAGWVVLSC gave a protein stability index of 0.187 ± 0.023. Sequence WLYPVFKISYCV has a protein stability index of 0.357 ± 0.032. With WNIVKHREDMLS the protein stability index was 0.638 ± 0.021. In the case of WSLPPLLSPLYF, the protein stability index is reported as 0.67 ± 0.016. WVCCFVWGCLIR gave a protein stability index of 0.239 ± 0.021. WVLSRAAFVFFF showed a protein stability index of 0.473 ± 0.019. With WVVLVCGFVLLG the protein stability index was 0.243 ± 0.042. With YAFSTCTILIRF the protein stability index was 0.211 ± 0.034. Work on YFTNCYRSILTF yielded a protein stability index of 0.367 ± 0.047. With YGWILQLPCFVI the protein stability index was 0.24 ± 0.031. With YHDKLRAIEKFF the protein stability index was 0.635 ± 0.018. Work on YLCFVVSCGVLR yielded a protein stability index of 0.327 ± 0.031.
